Results from article PMC11891140.
Blank lines part the entries; values can stand above or below the molecule they belong to.

Key:
[1] = biological target: EGL-8 used as bait in GST pull-downs of UNC-16 domains (Fig. 5D, 7J) (UniProt G5EBH0); assay: GST pull-down; settings: GST::EGL-8 bait (x label in J' printed as GST::RAB-8); in vitro translated HA-tagged prey; three independent replicates; parent: est. 3.2; read off a plot
[2] = biological target: RAB-10 used in GST pull-downs, loaded with GTPγS or GDP (UniProt Q94148); assay: GST pull-down; settings: GST::RAB-10 loaded with GTPγS; in vitro translated HA-tagged prey; three independent replicates; parent: est. 6.1; read off a plot
UniProt Q94148, sequence (Q94148 whole entry, the tested form may be a part): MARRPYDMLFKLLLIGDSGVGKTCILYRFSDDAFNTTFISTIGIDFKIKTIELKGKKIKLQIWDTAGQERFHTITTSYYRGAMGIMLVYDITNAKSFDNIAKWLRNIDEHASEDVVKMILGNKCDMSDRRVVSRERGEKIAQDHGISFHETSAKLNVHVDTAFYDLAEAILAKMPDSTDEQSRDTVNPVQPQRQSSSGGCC

[3] = biological target: purified UNC-16-LZII domain fragment (260–849 aa) (C. elegans); assay: native gel or EMSA; native-PAGE of purified UNC-16-LZII domain and its L360P variant (260–849 aa); dimer formation; three independent experiments
[4] = biological target: T1, purified UNC-16-LZII domain fragment (260–849 aa), L360P variant; assay: Native-PAGE; settings: chain shown with the change; three independent experiments; P = 0.0034; parent: est. 0.86; read off a plot
T1 chain: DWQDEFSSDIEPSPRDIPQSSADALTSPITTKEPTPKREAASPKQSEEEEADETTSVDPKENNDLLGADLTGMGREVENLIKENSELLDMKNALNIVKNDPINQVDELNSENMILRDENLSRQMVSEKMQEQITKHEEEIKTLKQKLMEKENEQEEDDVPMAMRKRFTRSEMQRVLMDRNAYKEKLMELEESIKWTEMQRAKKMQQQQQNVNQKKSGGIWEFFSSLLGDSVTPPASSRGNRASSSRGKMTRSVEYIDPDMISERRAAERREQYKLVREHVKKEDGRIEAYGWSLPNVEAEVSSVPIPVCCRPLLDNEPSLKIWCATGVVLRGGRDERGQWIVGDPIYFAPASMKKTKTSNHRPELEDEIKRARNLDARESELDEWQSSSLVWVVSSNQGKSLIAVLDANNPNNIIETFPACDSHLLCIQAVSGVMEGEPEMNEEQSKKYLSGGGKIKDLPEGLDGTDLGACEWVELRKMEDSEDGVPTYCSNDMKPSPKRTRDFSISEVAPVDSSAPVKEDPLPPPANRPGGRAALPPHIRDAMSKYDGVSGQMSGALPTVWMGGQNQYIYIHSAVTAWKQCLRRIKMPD

UniProt G5EBH0, sequence (G5EBH0 whole entry, the tested form may be a part): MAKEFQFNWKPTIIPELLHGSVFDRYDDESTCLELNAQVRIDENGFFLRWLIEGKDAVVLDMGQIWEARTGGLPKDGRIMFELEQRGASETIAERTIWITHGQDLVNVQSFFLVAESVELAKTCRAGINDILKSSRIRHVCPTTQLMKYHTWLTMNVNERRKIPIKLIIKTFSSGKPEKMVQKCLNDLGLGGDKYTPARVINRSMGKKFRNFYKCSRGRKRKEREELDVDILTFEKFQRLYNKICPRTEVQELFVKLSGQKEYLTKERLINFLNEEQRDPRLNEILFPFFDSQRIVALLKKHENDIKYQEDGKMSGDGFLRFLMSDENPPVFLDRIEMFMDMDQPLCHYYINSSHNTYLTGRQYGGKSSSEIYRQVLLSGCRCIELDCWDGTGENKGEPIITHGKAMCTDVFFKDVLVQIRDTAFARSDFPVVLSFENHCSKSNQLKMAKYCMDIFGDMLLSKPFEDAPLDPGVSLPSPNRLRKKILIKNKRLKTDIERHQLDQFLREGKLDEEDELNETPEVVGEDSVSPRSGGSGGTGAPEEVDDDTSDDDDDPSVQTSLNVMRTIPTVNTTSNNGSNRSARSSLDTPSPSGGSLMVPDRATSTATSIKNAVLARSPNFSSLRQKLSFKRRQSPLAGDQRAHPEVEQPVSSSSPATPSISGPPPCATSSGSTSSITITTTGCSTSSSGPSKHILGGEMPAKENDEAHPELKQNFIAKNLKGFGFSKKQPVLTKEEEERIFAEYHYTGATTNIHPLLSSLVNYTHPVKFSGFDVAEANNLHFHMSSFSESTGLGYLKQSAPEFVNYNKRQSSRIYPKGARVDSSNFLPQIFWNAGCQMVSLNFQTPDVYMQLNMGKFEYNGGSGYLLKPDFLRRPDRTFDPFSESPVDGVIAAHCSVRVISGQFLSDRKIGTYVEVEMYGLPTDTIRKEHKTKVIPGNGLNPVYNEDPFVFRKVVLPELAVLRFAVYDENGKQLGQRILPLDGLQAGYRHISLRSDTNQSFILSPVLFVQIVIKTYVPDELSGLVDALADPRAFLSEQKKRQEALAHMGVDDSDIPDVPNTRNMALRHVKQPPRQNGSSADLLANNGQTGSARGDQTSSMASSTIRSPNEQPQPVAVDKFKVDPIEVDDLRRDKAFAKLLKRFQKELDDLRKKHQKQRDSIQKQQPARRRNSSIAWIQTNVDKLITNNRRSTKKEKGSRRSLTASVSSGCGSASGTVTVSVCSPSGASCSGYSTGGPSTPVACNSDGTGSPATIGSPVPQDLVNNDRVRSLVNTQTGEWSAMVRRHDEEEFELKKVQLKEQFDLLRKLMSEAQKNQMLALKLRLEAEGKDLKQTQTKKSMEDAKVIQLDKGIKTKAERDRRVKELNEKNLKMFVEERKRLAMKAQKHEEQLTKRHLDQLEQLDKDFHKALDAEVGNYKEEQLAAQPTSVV

response (binding/input) [1]: 0.65
Molecule: HA-tagged UNC-16 fragment containing the LZII domain (in vitro translated) L360P

response (binding/input) [2]: 0.1
response (binding/input) [1]: 0.1
Molecule: HA-tagged UNC-16 fragment containing the LZII domain (in vitro translated) L353A; N354A; I355A; V356A; K357A; N358A; D359A; L360A; I361A; N362A; Q363A; V364A; D365A; E366A; L367A

stoichiometry N [3]: 2
Molecule: purified UNC-16-LZII domain fragment (260–849 aa) (domain or fragment)

other: ratio of dimer to monomer [4]: 0.58
B1: purified UNC-16-LZII domain fragment (260–849 aa) L360P (protein)
chain: DWQDEFSSDIEPSPRDIPQSSADALTSPITTKEPTPKREAASPKQSEEEEADETTSVDPKENNDLLGADLTGMGREVENLIKENSELLDMKNALNIVKNDPINQVDELNSENMILRDENLSRQMVSEKMQEQITKHEEEIKTLKQKLMEKENEQEEDDVPMAMRKRFTRSEMQRVLMDRNAYKEKLMELEESIKWTEMQRAKKMQQQQQNVNQKKSGGIWEFFSSLLGDSVTPPASSRGNRASSSRGKMTRSVEYIDPDMISERRAAERREQYKLVREHVKKEDGRIEAYGWSLPNVEAEVSSVPIPVCCRPLLDNEPSLKIWCATGVVLRGGRDERGQWIVGDPIYFAPASMKKTKTSNHRPELEDEIKRARNLDARESELDEWQSSSLVWVVSSNQGKSLIAVLDANNPNNIIETFPACDSHLLCIQAVSGVMEGEPEMNEEQSKKYLSGGGKIKDLPEGLDGTDLGACEWVELRKMEDSEDGVPTYCSNDMKPSPKRTRDFSISEVAPVDSSAPVKEDPLPPPANRPGGRAALPPHIRDAMSKYDGVSGQMSGALPTVWMGGQNQYIYIHSAVTAWKQCLRRIKMPD
